Measured values as given in the supplement of paper PMC7877785.
± gives the uncertainty stated by the source.

Assay: self-splicing fitness, log relative to wild type (ln ratio); higher = more splicing; Tetrahymena group I intron in knt gene, E. coli kanamycin selection, DiMSum; sequences stand for … in CUCUCU…GGAGGGAAAAGUUAUCAGGCAUGCACCUGGUAGCUAGUCUUUAAACCAAUAGAUUGCAUCGGUUUAAAAGGCAAGACCGUCAAAUUGCGGGAAAGGGGUCAACAGCCGUUCAGUACCAAGUCUCAGGGGAAACUUUGAGAUGGCCUUGCAAAGGGUAUGGUAAUAAGCUGACGGACAUGGUCCUAACCACGCAGCCAAGUCCUAAGUCAACAGAUCUUCUGUUGAUAUGGAUGCAGUUCACAGACUAAAUGUCGGUCGGGGAAGAUGUAUUCUUCUCAUAAGAUAUAGUCGGACCUCUCCUUAAUGGGAGCUAGCGGAUGAAGUGAUGCAACACUGGAGCCGCUGGGAACUAAUUUGUAUGCGAAAGUAUAUUGAUUAGUUUUGGAGUACUCGUGGUCG
Summary of the method: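 Six replicate transformations of E. coli BL21(DE3) with a pET-22b(+) library were grown overnight at 37°C or 30°C. The library randomised all eight P1ex-region intron nucleotides, the intron lying in the knt kanamycin-resistance gene, and plates were LB agar with or without 25 μg/mL kanamycin plus 100 μg/mL carbenicillin, 50 μM IPTG and 0.2% rhamnose. Pooled colonies were amplicon-sequenced on an Illumina HiSeq 2500, and fitness is the DiMSum error-weighted combination of wild-type-normalised replicate fold changes, kanamycin versus none.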

Sequence | self-splicing fitness (ln) (30 °C) | self-splicing fitness (ln) (37 °C)
UGAUAGCAAUAUUACGCACA | 0.0791 ± 0.086 | -0.216 ± 0.1
UGAUAGCAAUAUUACGCACU | -0.651 ± 0.14 | -0.218 ± 0.14
UGAUAGCAAUAUUACGCCGG | -1.5 ± 0.22 | 0.564 ± 0.23
UGAUAGCAAUAUUACGCGUG | -1.18 ± 0.072 | -0.0417 ± 0.078
UGAUAGCAAUAUUACGGACC | -1.26 ± 0.26 | –
UGAUAGCAAUAUUACGGCAA | -1.36 ± 0.15 | -0.418 ± 0.15
UGAUAGCAAUAUUACGGCUU | -1.2 ± 0.19 | 0.584 ± 0.17
UGAUAGCAAUAUUACGGGAG | -3.64 ± 0.29 | -2.19 ± 0.21
UGAUAGCAAUAUUACGGUAA | – | -1.62 ± 0.35
UGAUAGCAAUAUUACGGUCC | -0.857 ± 0.1 | 0.318 ± 0.14
UGAUAGCAAUAUUACGGUUA | -0.585 ± 0.067 | -0.467 ± 0.085
UGAUAGCAAUAUUACGUAAC | -3.41 ± 0.17 | -2.76 ± 0.22
UGAUAGCAAUAUUACGUCAA | -2.44 ± 0.18 | -0.767 ± 0.16
UGAUAGCAAUAUUACGUCCA | 0.015 ± 0.09 | 0.154 ± 0.12
UGAUAGCAAUAUUACGUCCU | -0.302 ± 0.07 | 0.376 ± 0.1
UGAUAGCAAUAUUACGUCGG | -1.4 ± 0.12 | -0.72 ± 0.12
UGAUAGCAAUAUUACGUUCG | -0.432 ± 0.076 | 0.4 ± 0.1
UGCAAGCAAUAUUACGAAGU | -3 ± 0.49 | –
UGCAAGCAAUAUUACGAAUC | -3.56 ± 0.29 | –
UGCAAGCAAUAUUACGAAUU | -2.91 ± 0.14 | -3.01 ± 0.23
UGCAAGCAAUAUUACGACAC | -2.23 ± 0.24 | -1.35 ± 0.21
UGCAAGCAAUAUUACGACUU | -2.34 ± 0.1 | -0.599 ± 0.11
UGCAAGCAAUAUUACGAGGG | -3.56 ± 0.23 | -1.77 ± 0.17
UGCAAGCAAUAUUACGAUAA | -0.8 ± 0.1 | -0.087 ± 0.12
UGCAAGCAAUAUUACGAUUC | -3.54 ± 0.32 | -1.31 ± 0.21

Sequence | self-splicing fitness (ln) (30 °C) | self-splicing fitness (ln) (37 °C)
UGCAAGCAAUAUUACGCCCA | -0.543 ± 0.14 | 0.796 ± 0.23
UGCAAGCAAUAUUACGCGAU | -3.34 ± 0.17 | -2.15 ± 0.2
UGCAAGCAAUAUUACGCGCA | -2.17 ± 0.23 | -1.86 ± 0.29
UGCAAGCAAUAUUACGCGUG | -3.54 ± 0.14 | -3.15 ± 0.2
UGCAAGCAAUAUUACGGGAC | -4 ± 0.37 | –
UGCAAGCAAUAUUACGGGCC | -1.31 ± 0.12 | -1.26 ± 0.14
UGCAAGCAAUAUUACGGGUU | -2.62 ± 0.095 | -1.23 ± 0.093
UGCAAGCAAUAUUACGGUGG | -2.3 ± 0.074 | -1.21 ± 0.085
UGCAAGCAAUAUUACGUAAG | -2.75 ± 0.13 | -2.64 ± 0.2
UGCAAGCAAUAUUACGUAAU | -1.85 ± 0.089 | -1.86 ± 0.13
UGCAAGCAAUAUUACGUACC | -2.18 ± 0.16 | -1.02 ± 0.23
UGCAAGCAAUAUUACGUCCC | -1.37 ± 0.28 | -0.65 ± 0.24
UGCAAGCAAUAUUACGUCUC | -1.76 ± 0.12 | -2.67 ± 0.25
UGCAAGCAAUAUUACGUCUU | -4.52 ± 0.31 | -0.686 ± 0.1
UGCAAGCAAUAUUACGUGUA | -1.96 ± 0.073 | -1.35 ± 0.084
UGCAAGCAAUAUUACGUUGA | -2.47 ± 0.1 | -1.32 ± 0.11
UGCAAGCAAUAUUACGUUGC | -3.3 ± 0.31 | -3.31 ± 0.39
UGCCAGCAAUAUUACGACCA | 0.429 ± 0.1 | 0.0668 ± 0.13
UGCCAGCAAUAUUACGAGAG | -4.28 ± 0.21 | -2.56 ± 0.14
UGCCAGCAAUAUUACGAGCG | -0.919 ± 0.066 | -0.309 ± 0.079
UGCCAGCAAUAUUACGAGGA | -1.49 ± 0.17 | -2.37 ± 0.22
UGCCAGCAAUAUUACGCGCA | -2.51 ± 0.28 | -1.06 ± 0.16
UGCCAGCAAUAUUACGCGCC | -1.15 ± 0.17 | -0.705 ± 0.23
UGCCAGCAAUAUUACGCUGA | -3.01 ± 0.19 | -2.21 ± 0.21
UGCCAGCAAUAUUACGCUUU | -2.03 ± 0.079 | -1.76 ± 0.074

Sequence | self-splicing fitness (ln) (30 °C) | self-splicing fitness (ln) (37 °C)
UGCCAGCAAUAUUACGGACC | -0.869 ± 0.2 | 0.326 ± 0.23
UGCCAGCAAUAUUACGGACG | -0.337 ± 0.06 | -0.0244 ± 0.076
UGCCAGCAAUAUUACGGCCA | -0.44 ± 0.076 | -0.0136 ± 0.086
UGCCAGCAAUAUUACGGCCU | -0.579 ± 0.1 | -0.213 ± 0.12
UGCCAGCAAUAUUACGGGGA | -1.8 ± 0.087 | -0.863 ± 0.11
UGCCAGCAAUAUUACGGGUC | -3.53 ± 0.23 | -2.34 ± 0.18
UGCCAGCAAUAUUACGUAAG | -2 ± 0.067 | -1.24 ± 0.083
UGCCAGCAAUAUUACGUAGA | -1.45 ± 0.056 | -0.504 ± 0.065
UGCCAGCAAUAUUACGUAGC | -3.9 ± 0.37 | -1.64 ± 0.17
UGCCAGCAAUAUUACGUCCU | -1.6 ± 0.14 | 0.244 ± 0.14
UGCCAGCAAUAUUACGUGAG | -2.12 ± 0.11 | -0.54 ± 0.097
UGCCAGCAAUAUUACGUGUU | -2.74 ± 0.1 | -1.67 ± 0.075
UGCCAGCAAUAUUACGUUAG | -2.26 ± 0.12 | -0.975 ± 0.13
UGCGAGCAAUAUUACGAGAG | -2.89 ± 0.15 | –
UGCGAGCAAUAUUACGAGGC | -2.74 ± 0.23 | -2 ± 0.23
UGCGAGCAAUAUUACGCGUC | -2.18 ± 0.26 | –
UGCGAGCAAUAUUACGCUAC | – | -0.55 ± 0.46
UGCGAGCAAUAUUACGGAUU | – | -3.08 ± 0.4
UGCGAGCAAUAUUACGGGAC | -3.69 ± 0.39 | -1.88 ± 0.23
UGCGAGCAAUAUUACGGGAU | -3.78 ± 0.35 | -2.21 ± 0.28
UGCGAGCAAUAUUACGGGUG | -1.72 ± 0.11 | -1.49 ± 0.12
UGCGAGCAAUAUUACGGUAC | -4.18 ± 0.3 | -3.26 ± 0.23
UGCGAGCAAUAUUACGGUAG | -3.36 ± 0.24 | -3.01 ± 0.32
UGCGAGCAAUAUUACGUAUU | -3.07 ± 0.17 | -2.58 ± 0.2
UGCGAGCAAUAUUACGUCUA | -0.974 ± 0.15 | -0.453 ± 0.17

Sequence | self-splicing fitness (ln) (30 °C) | self-splicing fitness (ln) (37 °C)
UGCGAGCAAUAUUACGUGAU | -2.47 ± 0.23 | -2.09 ± 0.4
UGCUAGCAAUAUUACGAAUA | -1.27 ± 0.13 | -1.16 ± 0.12
UGCUAGCAAUAUUACGACCU | -0.548 ± 0.088 | -0.345 ± 0.1
UGCUAGCAAUAUUACGACUG | 0.165 ± 0.081 | 0.259 ± 0.11
UGCUAGCAAUAUUACGAGAG | -2.79 ± 0.22 | -2.13 ± 0.23
UGCUAGCAAUAUUACGAUAA | -1.64 ± 0.15 | -0.358 ± 0.14
UGCUAGCAAUAUUACGAUUC | – | -2.33 ± 0.49
UGCUAGCAAUAUUACGCACG | -1.27 ± 0.12 | -1.18 ± 0.16
UGCUAGCAAUAUUACGCCAA | – | 0.0147 ± 0.24
UGCUAGCAAUAUUACGCUCC | -2.06 ± 0.23 | -0.757 ± 0.24
UGCUAGCAAUAUUACGGAUA | -1.44 ± 0.11 | -1.1 ± 0.13
UGCUAGCAAUAUUACGGCAU | -3.65 ± 0.28 | -2.37 ± 0.31
UGCUAGCAAUAUUACGGCGU | -3.57 ± 0.22 | -1.89 ± 0.17
UGCUAGCAAUAUUACGGCUA | -0.795 ± 0.17 | 0.345 ± 0.15
UGCUAGCAAUAUUACGGGCC | -1.55 ± 0.14 | -1.33 ± 0.15
UGCUAGCAAUAUUACGGGCG | -1.45 ± 0.1 | -1.82 ± 0.11
UGCUAGCAAUAUUACGGGGA | -0.989 ± 0.14 | 0.0335 ± 0.14
UGCUAGCAAUAUUACGGGGU | -2.82 ± 0.21 | -2.09 ± 0.21
UGCUAGCAAUAUUACGGUAU | -2.28 ± 0.1 | -2.43 ± 0.14
UGCUAGCAAUAUUACGUAGG | -2.18 ± 0.14 | -0.778 ± 0.2
UGCUAGCAAUAUUACGUGAU | -1.88 ± 0.13 | -1.39 ± 0.16
UGCUAGCAAUAUUACGUGUA | -1.74 ± 0.1 | -1.26 ± 0.1
UGCUAGCAAUAUUACGUUCC | – | -0.823 ± 0.42
UGCUAGCAAUAUUACGUUUC | -4.01 ± 0.42 | -2.06 ± 0.34
